Measured values from publication PMC2872554 (Nature structural & molecular biology, 2010).

Experiments:
[1] = biological target: mouse cadherin-6 EC1-2 fragment, wild type (mouse); assay: AUC
[2] = biological target: mouse E-cadherin EC1-2 E89A (mouse); assay: AUC
[3] = biological target: mouse cadherin-6 EC1-2 W4A (mouse); assay: AUC
[4] = biological target: mouse E-cadherin EC1-2 W2A (mouse); assay: AUC
[5] = biological target: mouse E-cadherin EC1-2 fragment, wild type (mouse); assay: AUC
[6] = biological target: mouse E-cadherin EC1-2 K14S (mouse); assay: AUC
[7] = biological target: mouse E-cadherin EC1-2 K14E (mouse); assay: AUC
[8] = biological target: mouse cadherin-6 EC1-2 M188D (mouse); assay: AUC
[9] = biological target: C-terminally biotinylated mouse cadherin-6 EC1-2 M188D (mouse); assay: SPR
[10] = biological target: mouse E-cadherin EC1-2 Y142R (mouse); assay: AUC
[11] = biological target: mouse E-cadherin EC1-2 AA extension mutant (mouse); assay: AUC
crystal structure = biological target: the molecule itself; assay: crystal structure

## mouse cadherin-6 EC1-2 fragment, wild type (domain or fragment)
[1]
  Kd: 3.1 µM

## mouse E-cadherin EC1-2 E89A (domain or fragment)
[2]
  Kd: 293 µM

## mouse cadherin-6 EC1-2 W4A (domain or fragment)
[3]
  Kd: 321 µM

## mouse E-cadherin EC1-2 W2A (domain or fragment)
[4]
  Kd: 916 µM

## mouse E-cadherin EC1-2 fragment, wild type (domain or fragment)
[5]
  Kd: 98.6 µM

## mouse E-cadherin EC1-2 K14S (domain or fragment)
[6]
  Kd: 96 µM

## mouse E-cadherin EC1-2 K14E (domain or fragment)
[7]
  Kd: 117 µM

## mouse cadherin-6 EC1-2 M188D (domain or fragment)
[8]
  Kd: 12.6 µM
[9]
  binding response: < 10 RU

## mouse E-cadherin EC1-2 Y142R (domain or fragment)
[10]
  Kd: 77.4 µM

## mouse E-cadherin EC1-2 AA extension mutant (domain or fragment)
[11]
  Kd: 811 µM

B1: mouse N-cadherin EC1-2 fragment, wild type (domain or fragment)
chain: DWVIPPINLPENSRGPFPQELVRIRSDRDKNLSLRYSVTGPGADQPPTGIFIINPISGQLSVTKPLDRELIARFHLRAHAVDINGNQVENPIDIVINVIDMNDNRPEFLHQVWNGSVPEGSKPGTYVMTVTAIDADDPNALNGMLRYRILSQAPSTPSPNMFTINNETGDIITVAAGLDREKVQQYTLIIQATDMEGNPTYGLSNTATAVITVTD
Crystal structure
  binding result: binds
